Assay results reported in patent US20250154279A1 (BEIGENE, published 2025).
Changes are numbered by the printed parent chain. In names and notes the source's numbering stands. One block for each binder: values may come before it.

Key:
[1] = biological target: T1, human GPC3 expressed on HepG2 cells (human, UniProt P51654 25-554); assay: flow cytometry on HepG2 cells
T1 construct: also called native huGPC3; native GPC3
Protocol: (§1) Briefly, anti-kappa antibody was immobilized on an activated CM5 biosensor chip (Cat.: BR100839, GE Life Sciences). […] Then a serial dilution (6.0 nM to 2150 nM) of human CD137 ECD-mIgG2a or huGPC3-His were flowed over the chip surface and changes in surface plasmon resonance signals were analyzed to calculate the association rates (kₒₙ) and dissociation rates (koff) by using the one-to-one Langmuir binding model (BIA Evaluation Software, GE Life Sciences). The equilibrium dissociation constant (KD) was calculated as the ratio koff/kₒₙ. […] Goat anti-Human IgG was used as secondary antibody to detect antibody binding to the cell surface. EC₅₀ values for dose-dependent binding to human native CD137 were determined by fitting the dose-response data to the four-parameter logistic model with GraphPad Prism™. […] Goat anti-Human IgG was used as secondary antibody to detect antibody binding to the cell surface. EC₅₀ values for dose-dependent binding to human native GPC3 were determined by fitting the dose-response data to the four-parameter logistic model with GraphPad Prism™.

[2] = biological target: T2, human CD137 over-expressed on HuT78 cells (HuT78/CD137) (human, UniProt Q07011 24-255); assay: flow cytometry on live Hut78/huCD137 cells
T2 construct: also called Hut78/huCD137; native CD137
Protocol: as §1

[3] = biological target: T3, huGPC3-His (human, UniProt P51654 25-559, limits assumed); assay: SPR (BIAcore T-200), BE-774 captured by anti-kappa antibody, huGPC3-His flowed over
T3 construct: not shown: His tag
Protocol: as §1

[4] = biological target: T4, human CD137 ECD-mIgG2a (human); assay: SPR (BIAcore T-200), BE-774 captured by anti-kappa antibody, human CD137 ECD-mIgG2a flowed over
T4 construct: also called huCD137
Protocol: as §1

[5] = biological target: T5, human CD137 (Cat.: 41B-H5256, Acrobio, CHINA) (human, UniProt Q07011 24-186); assay: SPR
T5 construct: Bought protein
Protocol: (§2) The binding kinetics of the antibodies were measured using surface plasmon resonance (SPR). SPR was used to measure the on-rate constant (Kₐ) and off-rate constant (Kd) of the antibodies to recombinant proteins of CD137 and GPC3 and then determined the affinity constant (KD).

[6] = biological target: T6, cynomolgus monkey CD137 ECD (cynomolgus monkey); assay: SPR
T6 construct: also called Cyno CD137; Cyno CD137 ECD
T6 chain: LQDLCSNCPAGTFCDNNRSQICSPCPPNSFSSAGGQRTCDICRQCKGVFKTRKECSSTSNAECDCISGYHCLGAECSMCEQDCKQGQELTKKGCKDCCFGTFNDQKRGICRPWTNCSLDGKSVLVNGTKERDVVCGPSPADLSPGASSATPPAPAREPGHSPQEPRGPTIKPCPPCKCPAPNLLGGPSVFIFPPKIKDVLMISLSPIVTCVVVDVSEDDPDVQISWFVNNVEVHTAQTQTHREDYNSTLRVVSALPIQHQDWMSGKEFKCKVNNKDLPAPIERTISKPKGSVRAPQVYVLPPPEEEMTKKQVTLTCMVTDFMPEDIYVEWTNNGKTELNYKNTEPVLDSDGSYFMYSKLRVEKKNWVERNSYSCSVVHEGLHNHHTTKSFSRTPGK
Protocol: as §2

[7] = biological target: T7, human GPC3 (Cat.: 10088-H08H, Sino Biological, CHINA) (human, UniProt P51654 25-559); assay: SPR
T7 construct: Bought protein
Protocol: as §2

[8] = biological target: T8, cynomolgus monkey GPC3 (Cat.: GP3-C5225, Acrobio, CHINA) (cynomolgus monkey, UniProt A0A2K5VK50 24-558); assay: SPR
T8 construct: also called Cyno GPC3
Protocol: as §2

[9] = biological target: T1, human GPC3 expressed on HepG2 cells; assay: FACS on HepG2 cells
[10] = biological target: T2, human CD137 over-expressed on HuT78 …; assay: FACS on HuT78/CD137 cells
[11] = biological target: T2, human CD137 over-expressed on HuT78 …; assay: flow cytometry on HuT78/CD137 cells, detection anti-hFc 647, no CD137L added
[12] = biological target: T9, mouse CD137 (mouse, UniProt P20334 24-187, limits assumed); assay: antigen ELISA
T9 construct: Coated antigen in ELISA; construct not described
T9 sequence (looked up): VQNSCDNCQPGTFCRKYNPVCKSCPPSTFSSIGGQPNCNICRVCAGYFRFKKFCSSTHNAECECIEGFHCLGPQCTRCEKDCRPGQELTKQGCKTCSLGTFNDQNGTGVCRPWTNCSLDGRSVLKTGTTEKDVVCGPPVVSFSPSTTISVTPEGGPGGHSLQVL
Protocol: (§3) For antigen ELISA, a Maxisorp immunoplate was coated with antigens and blocked with 3% BSA (w/v) in PBS buffer (blocking buffer). Monoclonal VHH antibodies were blocked with blocking buffer for 30 minutes and added to wells of the ELISA plate for 1 hour. After washes with PBST, bound antibodies were detected using HRP-conjugated anti-human IgG antibody (Sigma, A0170) and 3,3′,5,5′-tetramethylbenzidine substrate (Cat.: 00-4201-56, eBioscience, USA). Ligand competition was also applied in a ELISA assay.

[13] = biological target: T10, huCD137-his; assay: antigen ELISA, coated huCD137-his, detection with HRP anti-human IgG, single antibody concentration not given; competitor where added: 20 ug/ml CD137L
T10 construct: The sheet prints only 'huCD137-his'; also called human CD137-ECD-his
T10 extracellular domain with C-terminal His tag: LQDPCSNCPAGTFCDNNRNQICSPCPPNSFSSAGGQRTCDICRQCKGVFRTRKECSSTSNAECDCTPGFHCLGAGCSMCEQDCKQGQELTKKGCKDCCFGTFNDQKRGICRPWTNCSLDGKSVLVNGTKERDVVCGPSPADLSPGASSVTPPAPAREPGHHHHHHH
Protocol: as §3

[14] = biological target: T4, human CD137 ECD-mIgG2a; assay: antigen ELISA, coated huCD137-mIgG2a, detection with HRP anti-human IgG, single antibody concentration not given; competitor where added: 20 ug/ml CD137L
Protocol: as §3

T2 sequence (Q07011 24-255 limits assumed): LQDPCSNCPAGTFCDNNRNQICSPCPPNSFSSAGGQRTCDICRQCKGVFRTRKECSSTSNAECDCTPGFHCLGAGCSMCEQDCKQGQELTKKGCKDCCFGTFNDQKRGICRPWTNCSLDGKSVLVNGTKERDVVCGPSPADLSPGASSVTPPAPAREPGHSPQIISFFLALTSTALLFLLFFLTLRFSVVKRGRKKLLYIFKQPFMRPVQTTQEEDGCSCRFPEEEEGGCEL
T3 sequence (P51654 25-559 limits assumed): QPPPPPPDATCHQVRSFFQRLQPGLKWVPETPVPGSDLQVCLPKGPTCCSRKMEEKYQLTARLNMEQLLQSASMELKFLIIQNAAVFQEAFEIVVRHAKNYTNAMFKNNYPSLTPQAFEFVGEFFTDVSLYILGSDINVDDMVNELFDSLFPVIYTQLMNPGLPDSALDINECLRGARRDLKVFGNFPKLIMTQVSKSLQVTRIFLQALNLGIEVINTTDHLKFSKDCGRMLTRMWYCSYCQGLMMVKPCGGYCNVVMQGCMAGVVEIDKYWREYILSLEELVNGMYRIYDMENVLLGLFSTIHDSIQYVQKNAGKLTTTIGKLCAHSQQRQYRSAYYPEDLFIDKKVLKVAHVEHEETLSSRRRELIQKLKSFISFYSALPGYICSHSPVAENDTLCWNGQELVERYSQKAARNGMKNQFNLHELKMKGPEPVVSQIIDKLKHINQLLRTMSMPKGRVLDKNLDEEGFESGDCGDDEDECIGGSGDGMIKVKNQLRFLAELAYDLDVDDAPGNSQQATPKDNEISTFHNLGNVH
T7 sequence (P51654 25-559 limits assumed): as above
T1 sequence (P51654 25-554 limits assumed): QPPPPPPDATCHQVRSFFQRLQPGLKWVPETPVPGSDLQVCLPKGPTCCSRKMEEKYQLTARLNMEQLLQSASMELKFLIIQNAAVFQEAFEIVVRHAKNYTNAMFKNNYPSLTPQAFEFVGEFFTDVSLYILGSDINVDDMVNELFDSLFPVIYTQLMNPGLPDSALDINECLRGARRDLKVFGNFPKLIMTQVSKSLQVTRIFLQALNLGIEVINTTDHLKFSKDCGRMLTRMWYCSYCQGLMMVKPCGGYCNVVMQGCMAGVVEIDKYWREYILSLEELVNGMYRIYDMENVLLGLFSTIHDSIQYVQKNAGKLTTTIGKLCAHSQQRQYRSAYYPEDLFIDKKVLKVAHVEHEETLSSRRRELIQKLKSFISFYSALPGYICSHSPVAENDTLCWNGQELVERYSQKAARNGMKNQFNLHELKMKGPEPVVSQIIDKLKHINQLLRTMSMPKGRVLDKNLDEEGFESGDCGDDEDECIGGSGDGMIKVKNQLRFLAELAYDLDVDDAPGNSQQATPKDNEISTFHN

- EC50 [1]: 0.9 nM
- EC50 [2]: 0.7 nM
- Kd [3]: 1.01 nM
- koff [3]: 0.00022 s⁻¹
- kon [3]: 218000 M⁻¹ s⁻¹
- Kd [4]: 0.529 nM
- koff [4]: 0.000425 s⁻¹
- kon [4]: 804000 M⁻¹ s⁻¹
B1: BE-774 (anti-GPC3 x CD137 bispecific antibody, GPC3 antibody + VHH BGA-9612, IgG1mf Fc-YTE) (bispecific antibody)
heavy: QVQLVQSGAEVKKPGASVKVSCKASGYTFTDYEMHWVRQAPGQGLEWMGALDPKTGDTAYSQKFKGRVTLTADKSTSTAYMELSSLTSEDTAVYYCTRFYSYTYWGQGTLVTVSSASTKGPSVFPLAPSSKSTSGGTAALGCLVKDYFPEPVTVSWNSGALTSGVHTFPAVLQSSGLYSLSSVVTVPSSSLGTQTYICNVNHKPSNTKVDKKVEPKSCDKTHTCPPCPAPPAAGPSVFLFPPKPKDTLYITREPEVTCVVVDVSHEDPEVKFNWYVDGVEVHNAKTKPREEQYNSTYRVVSVLTVLHQDWLNGKEYKCKVSNKALAAPIEKTISKAKGQPREPQVYTLPPSREEMTKNQVSLTCLVKGFYPSDIAVEWESNGQPENNYKTTPPVLDSDGSFFLYSKLTVDKSRWQQGNVFSCSVMHEALHNHYTQKSLSLSPGKGGGGSEVQLVESGGGTVQPGDSLRLSCAASGRTFDNYAVGWFRQAPGKERQYVGTYWSGYAHYGDFENNRFTISRDNAKNTVYLQMDNLKPEDTAVYYCAISLKYPMATVTPDYQGQGTQVTVSS
light: DVVMTQSPLSLPVTPGEPASISCRSSQSLVHSNRNTYLHWYLQKPGQSPQLLIYKVSNRFSGVPDRFSGSGSGTDFTLKISRVEAEDVGVYYCSQNTHVPPTFGQGTKLEIKRTVAAPSVFIFPPSDEQLKSGTASVVCLLNNFYPREAKVQWKVDNALQSGNSQESVTEQDSKDSTYSLSSTLTLSKADYEKHKVYACEVTHQGLSSPVTKSFNRGEC

- Kd [5]: 3.6 nM
- koff [5]: 0.00042 s⁻¹
- kon [5]: 120000 M⁻¹ s⁻¹
- Kd [6]: 4.4 nM
- koff [6]: 0.00055 s⁻¹
- kon [6]: 130000 M⁻¹ s⁻¹
- Kd [7]: 2.4 nM
- koff [7]: 0.00014 s⁻¹
- kon [7]: 58000 M⁻¹ s⁻¹
- Kd [8]: 0.53 nM
- koff [8]: 0.00011 s⁻¹
- kon [8]: 210000 M⁻¹ s⁻¹
- EC50 [9]: 1.09 nM
- EC50 [10]: 0.69 nM
- EC50 (read off the curve) [11]: ~0.1 µg/mL
B2: BE-915 (anti-GPC3 x CD137 bispecific antibody, GPC3 antibody + VHH BGA-2524, IgG1mf Fc-YTE) (bispecific antibody)
heavy: B1 heavy with T460L, D465G, Q495E, D531N, K534R
light: B1 light

- binding result [12]: no binding
- binding result [13]: binds
- binding result [14]: binds
B3: BGA-9612 VHH-Fc (camelid anti-huCD137 VHH fused at the N terminal of human IgG1 Fc-null with a G4S linker) (VHH)
VHH: QVQLVESGGGTVQPGDSLRLSCAASGRTFDNYAVGWFRQAPGKERQYVGTYWSGYAHYGDFENNRFTISRDNAKNTVYLQMDNLKPEDTAVYYCAISLKYPMATVTPDYQGQGTQVTVSS
